“And” between values parts separate entries of the source, which are not always exact repeats. Identical values can stand only once.
Target: T1, Recombinant human CD28 (R&D Systems) (human, UniProt P10747 19-152)
T1 construct: Coated on microtiter plates at 1 ug/mL; also called recombinant CD28
Test: ELISA on immobilized recombinant human CD28, purified Mono28Fc

- EC50: 0.1 µg/mL and 1.16 nM
B1: Mono28Fc, recombinant monovalent antibody derived from the anti-CD28 antibody CD28.3 (heterodimer VH-CH2CH3 + VL-CH2CH3, human IgG1 CH2-CH3) (antibody, V domains shown)
VH: VKLQQSGAELVKPGASVRLSCKASGYTFTEYIIHWIKLRSGQGLEWIGWFYPGSNDIQYNAKFKGKATLTADKSSSTVYMELTGLTSEDSAVYFCARRDDFSGYDALPYWGQGTMVTVSS
VL: DIQMTQSPASLSVSVGETVTITCRTNENIYSNLAWYQQKQGKSPQLLIYAATHLVEGVPSRFSGSGSGTQYSLKITSLQSEDFGNYYCQHFWGTPCTFGGGTKLEIKR
notes: Expressed in COS cells from pSecTag2B with the mouse Ig kappa leader (cleaved on secretion); also called co-transfection with pSec-VH-Fc(CH2-CH3) and pSec-VL-Fc(CH2-CH3)

Reference: patent US20170166643A1 (OSE IMMUNOTHERAPEUTICS, published 2017)
